We go through nine variants from IntAct's records for PubMed 31515488.

B1: Coiled-coil domain-containing protein 70 (Homo sapiens), Q6NSX1 (parent)
chain: MFSFKVSRWMGLACFRSLAASSPSIRQKKLMHKLQEEKAFREEMKIFREKIEDFREEMWTFRGKIHAFRGQILGFWEEERPFWEEEKTFWKEEKSFWEMEKSFREEEKTFWKKYRTFWKEDKAFWKEDNALWERDRNLLQEDKALWEEEKALWVEERALLEGEKALWEDKTSLWEEENALWEEERAFWMENNGHIAGEQMLEDGPHNANRGQRLLAFSRGRA
partner: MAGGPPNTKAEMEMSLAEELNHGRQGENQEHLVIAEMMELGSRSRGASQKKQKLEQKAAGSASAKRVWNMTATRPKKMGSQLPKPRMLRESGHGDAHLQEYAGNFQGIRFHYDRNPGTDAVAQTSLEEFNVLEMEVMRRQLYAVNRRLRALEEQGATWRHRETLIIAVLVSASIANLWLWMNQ
B2: Tuftelin-interacting protein 11 (Homo sapiens), Q9UBB9 (parent)
chain: MSLSHLYRDGEGRIDDDDDERENFEITDWDLQNEFNPNRQRHWQTKEEATYGVWAERDSDDERPSFGGKRARDYSAPVNFISAGLKKGAAEEAELEDSDDEEKPVKQDDFPKDFGPRKLKTGGNFKPSQKGFAGGTKSFMDFGSWERHTKGIGQKLLQKMGYVPGRGLGKNAQGIINPIEAKQRKGKGAVGAYGSERTTQSMQDFPVVDSEEEAEEEFQKELSQWRKDPSGSKKKPKYSYKTVEELKAKGRISKKLTAPQKELSQVKVIDMTGREQKVYYSYSQISHKHNVPDDGLPLQSQQLPQSGKEAKAPGFALPELEHNLQLLIDLTEQEIIQNDRQLQYERDMVVNLFHELEKMTEVLDHEERVISNLSKVLEMVEECERRMQPDCSNPLTLDECARIFETLQDKYYEEYRMSDRVDLAVAIVYPLMKEYFKEWDPLKDCTYGTEIISKWKSLLENDQLLSHGGQDLSADAFHRLIWEVWMPFVRNIVTQWQPRNCDPMVDFLDSWVHIIPVWILDNILDQLIFPKLQKEVENWNPLTDTVPIHSWIHPWLPLMQARLEPLYSPIRSKLSSALQKWHPSDSSAKLILQPWKDVFTPGSWEAFMVKNIVPKLGMCLGELVINPHQQHMDAFYWVIDWEGMISVSSLVGLLEKHFFPKWLQVLCSWLSNSPNYEEITKWYLGWKSMFSDQVLAHPSVKDKFNEALDIMNRAVSSNVGAYMQPGARENIAYLTHTERRKDFQYEAMQERREAENMAQRGIGVAASSVPMNFKDLIETKAEEHNIVFMPVIGKRHEGKQLYTFGRIVIYIDRGVVFVQGEKTWVPTSLQSLIDMAK
partner: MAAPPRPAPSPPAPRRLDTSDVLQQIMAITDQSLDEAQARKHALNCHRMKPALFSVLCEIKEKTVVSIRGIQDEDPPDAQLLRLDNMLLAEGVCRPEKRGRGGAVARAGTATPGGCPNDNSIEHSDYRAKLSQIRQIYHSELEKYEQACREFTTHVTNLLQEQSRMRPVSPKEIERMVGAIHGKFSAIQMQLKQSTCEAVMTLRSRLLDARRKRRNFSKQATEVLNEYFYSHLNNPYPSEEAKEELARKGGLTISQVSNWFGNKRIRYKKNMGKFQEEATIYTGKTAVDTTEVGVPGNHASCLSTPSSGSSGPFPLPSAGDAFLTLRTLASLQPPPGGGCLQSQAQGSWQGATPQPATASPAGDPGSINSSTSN
B3: Keratin, type II cytoskeletal 2 epidermal (Homo sapiens), P35908 (parent)
chain: MSCQISCKSRGRGGGGGGFRGFSSGSAVVSGGSRRSTSSFSCLSRHGGGGGGFGGGGFGSRSLVGLGGTKSISISVAGGGGGFGAAGGFGGRGGGFGGGSSFGGGSGFSGGGFGGGGFGGGRFGGFGGPGGVGGLGGPGGFGPGGYPGGIHEVSVNQSLLQPLNVKVDPEIQNVKAQEREQIKTLNNKFASFIDKVRFLEQQNQVLQTKWELLQQMNVGTRPINLEPIFQGYIDSLKRYLDGLTAERTSQNSELNNMQDLVEDYKKKYEDEINKRTAAENDFVTLKKDVDNAYMIKVELQSKVDLLNQEIEFLKVLYDAEISQIHQSVTDTNVILSMDNSRNLDLDSIIAEVKAQYEEIAQRSKEEAEALYHSKYEELQVTVGRHGDSLKEIKIEISELNRVIQRLQGEIAHVKKQCKNVQDAIADAEQRGEHALKDARNKLNDLEEALQQAKEDLARLLRDYQELMNVKLALDVEIATYRKLLEGEECRMSGDLSSNVTVSVTSSTISSNVASKAAFGGSGGRGSSSGGGYSSGSSSYGSGGRQSGSRGGSGGGGSISGGGYGSGGGSGGRYGSGGGSKGGSISGGGYGSGGGKHSSGGGSRGGSSSGGGYGSGGGGSSSVKGSSGEAFGSSVTFSFR
partner: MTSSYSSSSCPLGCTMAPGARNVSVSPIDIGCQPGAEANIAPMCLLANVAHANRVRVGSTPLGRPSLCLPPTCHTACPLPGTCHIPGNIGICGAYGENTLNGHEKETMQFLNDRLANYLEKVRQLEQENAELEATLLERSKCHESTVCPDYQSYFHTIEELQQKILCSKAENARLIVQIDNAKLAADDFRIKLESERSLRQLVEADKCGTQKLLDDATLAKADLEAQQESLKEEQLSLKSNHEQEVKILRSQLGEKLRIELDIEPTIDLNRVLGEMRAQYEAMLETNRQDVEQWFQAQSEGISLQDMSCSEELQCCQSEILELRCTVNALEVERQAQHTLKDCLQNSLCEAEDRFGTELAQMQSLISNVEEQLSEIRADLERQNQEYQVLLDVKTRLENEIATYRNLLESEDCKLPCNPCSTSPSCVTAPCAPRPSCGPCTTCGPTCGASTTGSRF
B4: Tuftelin-interacting protein 11 (Homo sapiens), Q9UBB9 (parent)
chain: B2 chain
partner: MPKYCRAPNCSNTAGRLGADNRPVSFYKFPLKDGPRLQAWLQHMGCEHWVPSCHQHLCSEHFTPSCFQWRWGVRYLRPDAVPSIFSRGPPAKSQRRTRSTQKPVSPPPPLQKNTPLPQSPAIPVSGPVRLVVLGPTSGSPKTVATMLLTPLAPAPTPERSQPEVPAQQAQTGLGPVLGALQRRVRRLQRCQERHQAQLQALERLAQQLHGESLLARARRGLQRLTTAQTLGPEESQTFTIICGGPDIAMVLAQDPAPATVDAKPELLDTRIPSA
B5: Coiled-coil domain-containing protein 106 (Homo sapiens), Q9BWC9 (parent)
chain: MNDRSSRRRTMKDDETFEISIPFDEAPHLDPQIFYSLSPSRRNFEEPPEAASSALALMNSVKTQLHMALERNSWLQKRIEDLEEERDFLRCQLDKFISSARMEAEDHCRMKPGPRRMEGDSRGGAGGEASDPESAASSLSGASEEGSASERRRQKQKGGASRRRFGKPKARERQRVKDADGVLCRYKKILGTFQKLKSMSRAFEHHRVDRNTVALTTPIAELLIVAPEKLAEVGEFDPSKERLLEYSRRCFLALDDETLKKVQALKKSKLLLPITYRFKR
B6: NF-kappa-B inhibitor delta (Homo sapiens), Q8NI38 (parent)
chain: MEAGPWRVSAPPSGPPQFPAVVPGPSLEVARAHMLALGPQQLLAQDEEGDTLLHLFAARGLRWAAYAAAEVLQVYRRLDIREHKGKTPLLVAAAANQPLIVEDLLNLGAEPNAADHQGRSVLHVAATYGLPGVLLAVLNSGVQVDLEARDFEGLTPLHTAILALNVAMRPSDLCPRVLSTQARDRLDCVHMLLQMGANHTSQEIKSNKTVLHLAVQAANPTLVQLLLELPRGDLRTFVNMKAHGNTALHMAAALPPGPAQEAIVRHLLAAGADPTLRNLENEQPVHLLRPGPGPEGLRQLLKRSRVAPPGLSS

The first assay covers variants of B1. The settings on record: with fate1_human FATE1, Q969F0.
For the variant R62Q, the “effect of a mutation on the interaction” value was “with no effect”.
On the same count and under the same terms, to M200V belongs “with no effect”.

The next assay covers variants of B2. The conditions noted are these: with pbx4_human PBX4, Q9BYU1.
Consider R8Q, for which the “effect of a mutation on the interaction” value is “with no effect”.
Still for that read-out and setting: to S688L belongs “with no effect”.

Variants of B3 are the subject of the next assay. The conditions noted are these: with krt38_human KRT38, O76015.
For the variant A517G, the “effect of a mutation on the interaction” value is listed as “with no effect”.

In a further assay the parent is B4. The conditions noted are these: with thap8_human THAP8, Q8NA92.
On to S688L, for which the “effect of a mutation on the interaction” value is on record as “with no effect”.
As to R8Q, the “effect of a mutation on the interaction” value was “with no effect”.

In the next assay the parent is B5. The conditions noted are these: with atf4_human ATF4, P18848.
Sequence of atf4_human ATF4, P18848 (P18848 whole entry): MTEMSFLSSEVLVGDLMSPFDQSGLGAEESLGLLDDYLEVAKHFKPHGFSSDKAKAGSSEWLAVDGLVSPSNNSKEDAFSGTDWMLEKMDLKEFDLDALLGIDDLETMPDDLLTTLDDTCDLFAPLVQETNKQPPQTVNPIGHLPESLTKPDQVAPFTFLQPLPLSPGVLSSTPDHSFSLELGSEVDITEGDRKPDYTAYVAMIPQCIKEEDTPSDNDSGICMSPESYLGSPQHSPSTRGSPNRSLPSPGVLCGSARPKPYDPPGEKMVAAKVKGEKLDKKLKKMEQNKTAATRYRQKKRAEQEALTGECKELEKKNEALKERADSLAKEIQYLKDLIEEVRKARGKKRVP
As for A54T, the “effect of a mutation on the interaction” value is given as “with no effect”.

In the next assay the parent is B5. The settings on record: with fam9b_human FAM9B.
Consider A54T, for which the “effect of a mutation on the interaction” value is reported as “with no effect”.

Variants of B5 are the subject of a further assay. The settings on record: with ptbp2_human PTBP2, Q9UKA9.
Sequence of ptbp2_human PTBP2, Q9UKA9 (Q9UKA9 whole entry): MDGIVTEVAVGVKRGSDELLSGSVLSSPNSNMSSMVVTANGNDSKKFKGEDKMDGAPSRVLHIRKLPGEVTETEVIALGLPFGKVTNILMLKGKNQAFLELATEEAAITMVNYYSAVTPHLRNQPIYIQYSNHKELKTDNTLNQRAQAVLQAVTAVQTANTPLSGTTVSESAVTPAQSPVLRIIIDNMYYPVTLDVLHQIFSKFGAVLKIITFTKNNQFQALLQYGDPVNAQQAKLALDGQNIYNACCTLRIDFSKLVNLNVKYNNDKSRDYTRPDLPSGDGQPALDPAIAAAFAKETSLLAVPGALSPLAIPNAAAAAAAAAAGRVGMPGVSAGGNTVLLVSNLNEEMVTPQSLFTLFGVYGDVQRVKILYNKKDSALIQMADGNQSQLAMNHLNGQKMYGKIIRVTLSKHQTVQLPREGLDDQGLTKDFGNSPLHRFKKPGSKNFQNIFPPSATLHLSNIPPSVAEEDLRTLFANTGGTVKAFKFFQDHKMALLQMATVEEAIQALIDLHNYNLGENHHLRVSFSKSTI
For A54T, the “effect of a mutation on the interaction” value is “with no effect”.

Variants of B6 are the subject of a further assay. The settings on record: with ssxt_human SS18, Q15532.
Sequence of ssxt_human SS18, Q15532 (Q15532 whole entry): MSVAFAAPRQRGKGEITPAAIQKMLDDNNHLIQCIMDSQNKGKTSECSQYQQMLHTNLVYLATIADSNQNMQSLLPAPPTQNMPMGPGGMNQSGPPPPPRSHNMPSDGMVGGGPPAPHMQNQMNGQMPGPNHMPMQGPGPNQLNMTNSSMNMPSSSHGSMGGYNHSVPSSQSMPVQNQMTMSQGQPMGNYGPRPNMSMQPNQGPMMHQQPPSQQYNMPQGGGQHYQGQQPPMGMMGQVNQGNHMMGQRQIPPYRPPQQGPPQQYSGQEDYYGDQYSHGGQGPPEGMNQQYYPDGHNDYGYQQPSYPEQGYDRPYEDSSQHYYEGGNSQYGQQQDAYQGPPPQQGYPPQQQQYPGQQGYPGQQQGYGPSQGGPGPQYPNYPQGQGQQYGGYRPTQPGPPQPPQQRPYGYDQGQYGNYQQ
For V29A, the “effect of a mutation on the interaction” value is reported as “with no effect”.
